Experiment [1] concerns the target T1, biotinylated USP30_cd (USP30 catalytic domain with C77A mutation) (Homo sapiens (Human), UniProt Q70CQ3 57-517, limits assumed, biotinylated (site not stated)).
T1 sequence: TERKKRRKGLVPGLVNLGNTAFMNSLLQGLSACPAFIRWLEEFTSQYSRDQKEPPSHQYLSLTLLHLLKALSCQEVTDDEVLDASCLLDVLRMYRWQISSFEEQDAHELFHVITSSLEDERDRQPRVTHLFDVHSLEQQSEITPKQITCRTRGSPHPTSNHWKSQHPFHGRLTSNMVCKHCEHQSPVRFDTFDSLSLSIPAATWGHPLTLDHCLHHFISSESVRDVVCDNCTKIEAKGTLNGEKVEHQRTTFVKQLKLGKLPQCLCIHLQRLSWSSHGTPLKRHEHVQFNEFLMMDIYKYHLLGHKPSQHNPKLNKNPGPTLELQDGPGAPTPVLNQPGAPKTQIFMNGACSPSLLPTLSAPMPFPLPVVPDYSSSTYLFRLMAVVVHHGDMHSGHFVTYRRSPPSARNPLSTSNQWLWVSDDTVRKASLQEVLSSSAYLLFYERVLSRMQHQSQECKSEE
The experiment can be described thus: spot phage ELISA on biotinylated USP30_cd. The source says:
The selection identified peptide USP30_{—}3 and USP30_{—}8, which had moderate spot ELISA signals (signal/noise ratios of ˜5).
For orientation: In an ELISA, binding on a coated surface is turned into a signal by an enzyme label.

The next experiment deals with T2, UCHL3 (UniProt P15374 1-230).
T2 sequence (looked up): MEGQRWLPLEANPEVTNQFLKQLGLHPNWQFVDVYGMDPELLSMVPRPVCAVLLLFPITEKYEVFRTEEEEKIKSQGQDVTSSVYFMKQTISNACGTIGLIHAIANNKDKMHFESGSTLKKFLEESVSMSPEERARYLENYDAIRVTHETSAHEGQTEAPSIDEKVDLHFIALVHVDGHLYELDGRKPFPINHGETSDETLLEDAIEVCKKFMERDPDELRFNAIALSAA
The experiment can be described thus: cell-based or functional assay.

The target in experiment [2] is T3, USP30 (active enzyme in the ubiquitin-AMC assay) (Homo sapiens (Human), UniProt Q70CQ3 57-517, limits assumed).
T3 sequence: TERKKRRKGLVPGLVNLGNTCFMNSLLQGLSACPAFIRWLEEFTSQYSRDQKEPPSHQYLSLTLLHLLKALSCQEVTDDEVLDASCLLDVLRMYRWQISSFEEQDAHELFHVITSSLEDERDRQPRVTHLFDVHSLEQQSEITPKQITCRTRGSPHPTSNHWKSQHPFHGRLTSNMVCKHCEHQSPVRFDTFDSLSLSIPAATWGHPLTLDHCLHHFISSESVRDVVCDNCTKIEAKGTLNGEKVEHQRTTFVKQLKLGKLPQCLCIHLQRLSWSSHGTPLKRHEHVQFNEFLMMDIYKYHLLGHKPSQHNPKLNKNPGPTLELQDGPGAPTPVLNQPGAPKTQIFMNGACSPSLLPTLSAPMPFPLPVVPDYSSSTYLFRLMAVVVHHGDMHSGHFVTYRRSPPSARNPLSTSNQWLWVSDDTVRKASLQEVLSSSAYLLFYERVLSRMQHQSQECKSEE
The experiment can be described thus: cell-based or functional assay.

Another experiment addresses T4, USP5 (UniProt P45974 1-858, limits assumed).
T4 sequence (looked up): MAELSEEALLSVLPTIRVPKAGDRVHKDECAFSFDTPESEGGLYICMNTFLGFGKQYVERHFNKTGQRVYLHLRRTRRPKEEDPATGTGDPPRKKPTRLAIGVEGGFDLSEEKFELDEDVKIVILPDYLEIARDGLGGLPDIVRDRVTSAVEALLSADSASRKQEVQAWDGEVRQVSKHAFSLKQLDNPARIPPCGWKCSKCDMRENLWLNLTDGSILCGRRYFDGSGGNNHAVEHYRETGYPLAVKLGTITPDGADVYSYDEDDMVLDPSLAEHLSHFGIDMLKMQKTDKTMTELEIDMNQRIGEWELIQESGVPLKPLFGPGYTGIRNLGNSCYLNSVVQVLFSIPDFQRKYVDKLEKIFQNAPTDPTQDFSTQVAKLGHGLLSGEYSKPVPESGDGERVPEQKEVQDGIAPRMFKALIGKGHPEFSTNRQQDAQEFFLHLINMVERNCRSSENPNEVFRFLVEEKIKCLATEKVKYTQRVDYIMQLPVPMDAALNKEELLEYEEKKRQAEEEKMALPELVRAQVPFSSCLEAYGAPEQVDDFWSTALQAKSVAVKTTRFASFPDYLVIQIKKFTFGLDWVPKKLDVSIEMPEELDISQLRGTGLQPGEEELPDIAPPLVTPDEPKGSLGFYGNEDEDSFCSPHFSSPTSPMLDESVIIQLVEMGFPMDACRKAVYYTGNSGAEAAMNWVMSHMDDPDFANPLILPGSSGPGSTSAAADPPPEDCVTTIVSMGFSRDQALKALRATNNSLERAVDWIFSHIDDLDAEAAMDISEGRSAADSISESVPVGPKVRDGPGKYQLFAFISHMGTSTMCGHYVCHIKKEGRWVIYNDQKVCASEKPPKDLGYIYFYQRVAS
The experiment can be described thus: cell-based or functional assay.

Another experiment addresses T5, USP2 (UniProt O75604 259-605, limits assumed).
T5 sequence (looked up): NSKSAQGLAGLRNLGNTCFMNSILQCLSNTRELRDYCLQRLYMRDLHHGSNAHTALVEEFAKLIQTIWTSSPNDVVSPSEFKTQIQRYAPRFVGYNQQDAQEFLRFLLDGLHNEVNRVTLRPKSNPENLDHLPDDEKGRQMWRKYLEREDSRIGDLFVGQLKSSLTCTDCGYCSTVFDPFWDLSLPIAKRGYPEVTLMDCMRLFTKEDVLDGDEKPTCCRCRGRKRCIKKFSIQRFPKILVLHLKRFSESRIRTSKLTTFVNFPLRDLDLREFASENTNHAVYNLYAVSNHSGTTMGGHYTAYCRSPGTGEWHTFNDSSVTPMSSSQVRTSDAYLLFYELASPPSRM
The experiment can be described thus: cell-based or functional assay.

Two molecules from patent US20150344888A1 (Genentech, published 2015) can be followed below.

Several values for one entry are separate records, joined by “and”; a condition that tells them apart may be missing. Identical values can stand only once. Where no end group is shown, it is not given here.

Regarding VSRCYIFWNEMFCDVE (not fully specified (bridges); cysteine pairing not given here, also called pep8) [peptide USP30-8], the “signal/noise ratio (spot ELISA)” value in experiment [1] was around 5.
In the case of PLYCFYDLTYGYLCFY (also called pep3; parent USP30-3) [peptide USP30-3], the “IC50, inhibition of ubiquitin-AMC cleavage (initial rate, fluorescence)” value with UCHL3 was above 200 µM; in experiment [2], 8 µM; with USP5, 49.4 µM; in the experiment with USP2, ~100 µM and > 200 µM. Besides, the results for the “fold higher IC50 than for USP30” value with USP5 and in the experiment with USP2 were above 6 fold and above 10 fold, respectively. In addition, the “signal/noise ratio (spot ELISA)” value in experiment [1] was around 5.
